{"source": "patent US12121554B2", "about": "(priority 2018, dated 2024)", "molecules": {"B1": {"name": "recombinant IFNβ: recombinant murine interferon β added to CAR T cell cultures (protein, UniProt P01575 22-182, looked up)", "Interferon beta": "INYKQLQLQERTNIRKCQELLEQLNGKINLTYRADFKIPMEMTEKMQKSYTAFAIQEMLQNVFLVFRNNFSSTGWNETIVVRLLDELHQQTVFLKTVLEEKQEERLTWEMSSTALHLKSYYWRVQRYLKLMKYNSYAWMVVRAEIFRNFLIIRRLTRNFQN"}}, "key": {"[1]": {"tested_on": "CD19-specific CAR T cells", "format": "cell-based", "conditions": "recombinant murine IFNβ in IL2", "procedure": "FIGS. 8A-8D. CD19 CAR T cells treated with IFNβ in vitro. EGFRvIII-specific CAR T cells (with the scFv 139) and CD19-specific CAR T cells (with the scFv FMC63) were cultured in IL2 in the absence or presence of recombinant murine IFNβ, and CAR expression on the surface was measured using Biotin-Protein L and recognized with streptavidin-PE (Protein L+SA PE). Representative staining is shown in FIG. 8A, and the mean of three technical replicates was quantified in FIG. 8B. FIG. 8C: Representative expression of the activation markers CD25 and CD69 were shown for CAR T cells cultured as in FIG. 8A. FIG. 8D: Inhibitory receptor expression (PD1, LAG3, and TIM3) was quantified on CD8 CAR T or UTD cells cultured as in FIG. 8A. Average expression of three technical replicates is shown."}, "CD8 CAR T cells": {"tested_on": "CD8 CAR T cells", "format": "cell-based, murine"}}, "data": [{"molecule": "B1", "values": [{"measurement": "CAR expression on the surface of CD19-specific CAR T cells", "setting": "[1]", "result": "promoted higher expression levels of the CAR molecule"}, {"measurement": "activation phenotype (CD25, CD69) of CD19-specific CAR T cells", "setting": "[1]", "result": "supported an activated phenotype"}, {"measurement": "inhibitory receptor expression of CD19-specific CAR T cells over untransduced cells", "setting": "[1]", "result": "not associated with increased levels of inhibitory receptor expression"}, {"measurement": "CAR expression on the surface of transduced CD8 T cells", "setting": "CD8 CAR T cells", "result": "dose-dependent increase was observed in CAR expression"}, {"measurement": "expression of the exhaustion markers Lag3, PD1, and Tim 3", "setting": "CD8 CAR T cells", "result": "dose dependent increase in expression of the exhaustion markers Lag3, PD1, and Tim 3"}, {"measurement": "proportion of AnnexinV positive apoptotic cells", "setting": "CD8 CAR T cells", "result": "dose-dependent increase in the proportion of AnnexinV positive apoptotic cells"}, {"measurement": "proportion of triple positive cells (Lag3, PD1, Tim3)", "setting": "CD8 CAR T cells", "result": "dramatically increased by IFNβ between 0 and 1 ng/mL, and plateaued at higher doses"}]}]}
